Experimental data: the supplement of paper PMC9112550, “Optimization of the antimicrobial peptide Bac7 by deep mutational scanning” (BMC Biology, 2022)

What follows are sequences tested on Escherichia coli TOP10 (assay: shrunken log2 fold change of peptide-encoding DNA abundance (4.5 h post-induction vs induction); higher = less antimicrobial activity (less host growth inhibition)). Conditions: time post-induction: 4.5 h; library: site-saturation at positions 5, 18, 19, 20.
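Note: peptides expressed intracellularly from a pBAD plasmid library in pooled LB shake-flask culture, induced with 0.3% L-arabinose, DNA abundance read by NGS, three biological replicates, DESeq2 with apeglm shrinkage.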

RRIRVRPPRLPRPRPRPMVAPRP and RRIRERPPRLPRPRPRPFREPRP are within 0.2 log units of each other in “shrunken log2 fold change” value: -0.148 for the first, -0.235 for the second.

RRIRIRPPRLPRPRPRPDCSPRP and RRIRMRPPRLPRPRPRPWAGPRP are within 0.2 log units of each other in “shrunken log2 fold change” value: 0.0951 for the first, 0.235 for the second.

RRIRKRPPRLPRPRPRPQQEPRP and RRIRARPPRLPRPRPRPKITPRP are within 0.2 log units of each other in “shrunken log2 fold change” value: 0.0644 for the first, -0.0367 for the second.

Going from RRIRMRPPRLPRPRPRPVCKPRP to RRIRCRPPRLPRPRPRPVGNPRP, the “shrunken log2 fold change” value falls from 0.222 to -0.0972.

First: RRIRSRPPRLPRPRPRPGREPRP
Second: RRIRVRPPRLPRPRPRPYWFPRP
The “shrunken log2 fold change” value of the first is higher: 0.325 for the first, -0.396 for the second.

RRIRRRPPRLPRPRPRPDKHPRP and RRIRRRPPRLPRPRPRPQQWPRP are within 0.2 log units of each other in “shrunken log2 fold change” value: 0.157 for the first, 0.0704 for the second.

RRIRYRPPRLPRPRPRPQGKPRP and RRIRHRPPRLPRPRPRPKCSPRP are within 0.2 log units of each other in “shrunken log2 fold change” value: -0.00664 for the first, -0.0294 for the second.

Going from RRIRSRPPRLPRPRPRPYCEPRP to RRIRSRPPRLPRPRPRPSWVPRP, the “shrunken log2 fold change” value rises from -0.352 to 0.0183.

RRIRNRPPRLPRPRPRPPRHPRP and RRIRRRPPRLPRPRPRPHGMPRP are within 0.2 log units of each other in “shrunken log2 fold change” value: 0.271 for the first, 0.0957 for the second.

First: RRIRVRPPRLPRPRPRPSSIPRP
Second: RRIRYRPPRLPRPRPRPWSPPRP
The “shrunken log2 fold change” value of the first is higher: -0.128 for the first, -0.848 for the second.

RRIRCRPPRLPRPRPRPVDLPRP and RRIRLRPPRLPRPRPRPLKAPRP are within 0.2 log units of each other in “shrunken log2 fold change” value: -0.348 for the first, -0.153 for the second.

RRIRHRPPRLPRPRPRPRCEPRP and RRIRQRPPRLPRPRPRPLEMPRP are within 0.2 log units of each other in “shrunken log2 fold change” value: 0.149 for the first, 0.155 for the second.

RRIRRRPPRLPRPRPRPMEKPRP and RRIRNRPPRLPRPRPRPGIPPRP are within 0.2 log units of each other in “shrunken log2 fold change” value: 0.096 for the first, -0.0284 for the second.

RRIRQRPPRLPRPRPRPAYQPRP and RRIRDRPPRLPRPRPRPRITPRP are within 0.2 log units of each other in “shrunken log2 fold change” value: -0.00193 for the first, -0.138 for the second.

Going from RRIRGRPPRLPRPRPRPEWSPRP to RRIRHRPPRLPRPRPRPQMNPRP, the “shrunken log2 fold change” value falls from 0.644 to -0.312.

Going from RRIRSRPPRLPRPRPRPDTKPRP to RRIRARPPRLPRPRPRPCQIPRP, the “shrunken log2 fold change” value falls from -0.248 to -0.486.

Going from RRIRERPPRLPRPRPRPTYTPRP to RRIRPRPPRLPRPRPRPEALPRP, the “shrunken log2 fold change” value rises from -0.756 to 0.439.

RRIRPRPPRLPRPRPRPGYLPRP and RRIRHRPPRLPRPRPRPYHDPRP are within 0.2 log units of each other in “shrunken log2 fold change” value: -0.129 for the first, -0.135 for the second.

RRIRVRPPRLPRPRPRPFKNPRP and RRIRGRPPRLPRPRPRPMVHPRP are within 0.2 log units of each other in “shrunken log2 fold change” value: -0.055 for the first, -0.0529 for the second.

RRIRARPPRLPRPRPRPFKKPRP and RRIRKRPPRLPRPRPRPMTLPRP are within 0.2 log units of each other in “shrunken log2 fold change” value: -0.0888 for the first, -0.0281 for the second.

RRIRVRPPRLPRPRPRPANHPRP and RRIRLRPPRLPRPRPRPRMLPRP are within 0.2 log units of each other in “shrunken log2 fold change” value: -0.0489 for the first, -0.0478 for the second.

Going from RRIRWRPPRLPRPRPRPYYHPRP to RRIRTRPPRLPRPRPRPIAWPRP, the “shrunken log2 fold change” value rises from -0.306 to -0.104.

Going from RRIRWRPPRLPRPRPRPWGGPRP to RRIRARPPRLPRPRPRPPGHPRP, the “shrunken log2 fold change” value rises from 0.556 to 0.779.

RRIRDRPPRLPRPRPRPPNTPRP and RRIRERPPRLPRPRPRPCPDPRP are within 0.2 log units of each other in “shrunken log2 fold change” value: 0.0945 for the first, -0.0864 for the second.

Compared with RRIRCRPPRLPRPRPRPQMKPRP, RRIRDRPPRLPRPRPRPVKGPRP is higher in “shrunken log2 fold change” value: -0.514 for the first, 0.0617 for the second.

Going from RRIRIRPPRLPRPRPRPVHSPRP to RRIRRRPPRLPRPRPRPVPNPRP, the “shrunken log2 fold change” value rises from -0.0158 to 0.353.

Going from RRIRMRPPRLPRPRPRPMHDPRP to RRIRVRPPRLPRPRPRPYCMPRP, the “shrunken log2 fold change” value falls from 0.192 to -0.898.

Going from RRIRRRPPRLPRPRPRPTREPRP to RRIRKRPPRLPRPRPRPIPPPRP, the “shrunken log2 fold change” value falls from 0.892 to 0.385.

RRIRYRPPRLPRPRPRPPWYPRP and RRIRPRPPRLPRPRPRPIKDPRP are within 0.2 log units of each other in “shrunken log2 fold change” value: -0.786 for the first, -0.763 for the second.

First: RRIRSRPPRLPRPRPRPPMTPRP
Second: RRIRARPPRLPRPRPRPTQNPRP
The “shrunken log2 fold change” value of the first is lower: 0.243 for the first, 1.05 for the second.

Compared with RRIRWRPPRLPRPRPRPNYDPRP, RRIRKRPPRLPRPRPRPYQTPRP is higher in “shrunken log2 fold change” value: -0.24 for the first, 0.0193 for the second.

RRIRDRPPRLPRPRPRPQVFPRP and RRIRERPPRLPRPRPRPCDRPRP are within 0.2 log units of each other in “shrunken log2 fold change” value: -0.101 for the first, -0.187 for the second.

Going from RRIRMRPPRLPRPRPRPGFNPRP to RRIRLRPPRLPRPRPRPQQVPRP, the “shrunken log2 fold change” value rises from -0.106 to 0.107.

RRIRDRPPRLPRPRPRPVWWPRP and RRIRIRPPRLPRPRPRPMRIPRP are within 0.2 log units of each other in “shrunken log2 fold change” value: -0.00968 for the first, -0.0754 for the second.

Going from RRIRGRPPRLPRPRPRPVVWPRP to RRIRIRPPRLPRPRPRPQQLPRP, the “shrunken log2 fold change” value falls from 1.26 to -0.0183.

RRIRCRPPRLPRPRPRPHDQPRP and RRIRRRPPRLPRPRPRPHTMPRP are within 0.2 log units of each other in “shrunken log2 fold change” value: 0.0433 for the first, -0.0621 for the second.

RRIRDRPPRLPRPRPRPSCDPRP and RRIRFRPPRLPRPRPRPIDLPRP are within 0.2 log units of each other in “shrunken log2 fold change” value: -0.0948 for the first, -0.164 for the second.

RRIRQRPPRLPRPRPRPPYHPRP and RRIRGRPPRLPRPRPRPFIMPRP are within 0.2 log units of each other in “shrunken log2 fold change” value: -0.208 for the first, -0.285 for the second.

RRIRQRPPRLPRPRPRPFHFPRP and RRIRYRPPRLPRPRPRPDIFPRP are within 0.2 log units of each other in “shrunken log2 fold change” value: -0.0115 for the first, -0.032 for the second.

First: RRIRKRPPRLPRPRPRPPQKPRP
Second: RRIRIRPPRLPRPRPRPWHKPRP
The “shrunken log2 fold change” value of the first is higher: 0.682 for the first, -0.00213 for the second.

Compared with RRIRRRPPRLPRPRPRPVTLPRP, RRIRTRPPRLPRPRPRPSYYPRP is lower in “shrunken log2 fold change” value: 0.0854 for the first, -0.786 for the second.

Going from RRIRYRPPRLPRPRPRPAPFPRP to RRIRARPPRLPRPRPRPMQTPRP, the “shrunken log2 fold change” value rises from -0.11 to 0.114.

RRIRARPPRLPRPRPRPHSFPRP and RRIRKRPPRLPRPRPRPIDTPRP are within 0.2 log units of each other in “shrunken log2 fold change” value: 0.00388 for the first, -0.0729 for the second.

Compared with RRIRFRPPRLPRPRPRPNAAPRP, RRIRYRPPRLPRPRPRPSKFPRP is lower in “shrunken log2 fold change” value: 0.419 for the first, -0.299 for the second.

Going from RRIRFRPPRLPRPRPRPVYEPRP to RRIRHRPPRLPRPRPRPQDFPRP, the “shrunken log2 fold change” value rises from -0.66 to 0.0261.

RRIRWRPPRLPRPRPRPNHEPRP and RRIRCRPPRLPRPRPRPHTRPRP are within 0.2 log units of each other in “shrunken log2 fold change” value: -0.197 for the first, -0.372 for the second.

RRIRLRPPRLPRPRPRPKKAPRP and RRIRHRPPRLPRPRPRPQVRPRP are within 0.2 log units of each other in “shrunken log2 fold change” value: -0.0389 for the first, -0.134 for the second.

Going from RRIRNRPPRLPRPRPRPVKCPRP to RRIRSRPPRLPRPRPRPRPYPRP, the “shrunken log2 fold change” value falls from 0.0182 to -0.244.

Going from RRIRMRPPRLPRPRPRPTQVPRP to RRIRWRPPRLPRPRPRPEYQPRP, the “shrunken log2 fold change” value falls from 1.17 to 0.0269.

RRIRPRPPRLPRPRPRPFGNPRP and RRIRTRPPRLPRPRPRPVSQPRP are within 0.2 log units of each other in “shrunken log2 fold change” value: -0.146 for the first, 0.0169 for the second.

RRIRKRPPRLPRPRPRPNAIPRP and RRIRQRPPRLPRPRPRPRAWPRP are within 0.2 log units of each other in “shrunken log2 fold change” value: 0.0998 for the first, 0.123 for the second.

First: RRIRQRPPRLPRPRPRPIYYPRP
Second: RRIRMRPPRLPRPRPRPQAKPRP
The “shrunken log2 fold change” value of the first is lower: -1.26 for the first, 0.0296 for the second.

RRIRKRPPRLPRPRPRPFGYPRP and RRIRKRPPRLPRPRPRPKLGPRP are within 0.2 log units of each other in “shrunken log2 fold change” value: -0.0856 for the first, 0.0679 for the second.

Compared with RRIRMRPPRLPRPRPRPKDCPRP, RRIRTRPPRLPRPRPRPPPVPRP is higher in “shrunken log2 fold change” value: -0.0772 for the first, 0.652 for the second.

With RRIRTRPPRLPRPRPRPNMHPRP the “shrunken log2 fold change” value was 0.561.
